# Experimental data: article PMC12578283 (Protein & Cell, 2025)
# B1: 1G9 (antibody, V domains shown)
# VH: QVQLQQPGPELVRPGASVKLSCKASGYTFTTYWMKWVRQRPGQGLEWIGTIDPSDNEIHYNQIFKDKATLTVDKSSSTAYMHLSSLTSEDAAVYYCARWDGTSYYAMDYWGQGTSVTVSS
# VL: DVVMSQTPLSLPVSLGDQASISCRSSQSLVHSNGNTYLHWYLQKPGQSPKLLIYKVSNRFSGVPDRFSGSGSGTDFTLKISRVEAEDLGVYFCSQSTHVPPTFGGGTKLEIK
# B2: 4C7 (antibody, V domains shown)
# VH: QVQLHQPGSVLVRPGTSVKLSCKASGYTFTSSWMNWAKQRPGQGLEWIGEIHPRSGNTNYNENFKGKATLTVDTSSSTAYVDLSSLASEDSAVYYCARSGGTYYYAMDSWGQGTSVTVSS
# VL: DIQMTQTTSSLSASLGDRVTISCRASQDISNYLNWYQQKPDGTVKLLIYYTSRLHSGVPSRFSGSGSGTDFSLTISTLEQEDFATYFCQQANTSPYTFGGGTKLEIN
# Molecular target: p15 protein of African swine fever virus (African swine fever virus, UniProt Q65179)
row,Binder,binding result
1,B1,binds
2,B2,binds
